In US20120316071A1 (published 2012):
One block for each binder: values may come before it.

Assays:
[1] = target: T1, rHuman ErbB2/Fc Chimera, CF (R&D Systems Cat#1129-ER) (human, UniProt P04626 23-652); assay: ECL Multispot (MSD) assay, antigen spotted on plate, 10 nM Fab; blank spot 378
T1 construct: Bought recombinant Fc chimera; also called human epidermal growth factor 2 receptor; Fc part of the bought chimera not given

[2] = target: T2, rHuman Notch-1/Fc Chimera, CF (R&D Systems Cat#3647-TK) (human, UniProt P46531 19-526); assay: as above
T2 construct: Bought recombinant Fc chimera; Fc part of the bought chimera not given

[3] = target: T3, rHuman IGF-1 sR, CF (R&D Systems Cat#391-GR) (human, UniProt P08069 31-932); assay: as above
T3 construct: Bought soluble receptor; also called insulin-like growth factor-1 soluble receptor

[4] = target: T4, rHuman EGF R/Fc Chimera, CF (R&D Systems Cat#344-ER) (human, UniProt P00533 25-645); assay: as above
T4 construct: Bought recombinant Fc chimera; also called epidermal growth factor receptor; Fc part of the bought chimera not given

[5] = target: T5, Recombinant Human DLL4 (R&D Systems Cat#1506-D4/CF) (human, UniProt Q9NR61 27-524); assay: as above
T5 construct: Bought recombinant protein; also called delta-like protein 4; rHuman DLL4

[6] = target: T6, rHuman P-Cadherin/Fc Chimera, CF (R&D Systems Cat#861-PC) (human, UniProt P22223 108-654); assay: as above
T6 construct: Bought recombinant Fc chimera; Fc part of the bought chimera not given

[7] = target: T7, rHuman CD44/Fc Chimera, CF (R&D Systems Cat#3660-CD) (human, UniProt P16070 21-220); assay: as above
T7 construct: Bought recombinant Fc chimera; Fc part of the bought chimera not given

[8] = target: T8, rHuman HGF R/c-MET/Fc Chimera, CF (R&D Systems Cat#358-MT/CF) (human, UniProt P08581 25-932); assay: as above
T8 construct: Bought recombinant Fc chimera; also called HGF R/Fc; hepatocyte growth factor receptor; Fc part of the bought chimera not given

[9] = target: T9, rHuman Erythropoietin R/Fc Chimera, CF (R&D Systems Cat#963-ER) (human, UniProt P19235 25-250); assay: as above
T9 construct: Bought recombinant Fc chimera; also called EPO R; EPO R/Fc; Fc part of the bought chimera not given
T9 sequence (looked up): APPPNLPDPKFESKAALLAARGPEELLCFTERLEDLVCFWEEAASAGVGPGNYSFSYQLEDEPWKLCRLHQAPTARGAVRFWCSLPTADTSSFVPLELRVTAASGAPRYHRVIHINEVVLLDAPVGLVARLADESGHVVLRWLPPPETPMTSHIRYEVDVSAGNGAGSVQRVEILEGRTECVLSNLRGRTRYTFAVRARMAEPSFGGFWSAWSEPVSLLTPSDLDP

[10] = target: T1, rHuman ErbB2/Fc Chimera, CF (R&D …); assay: ECL Multispot (MSD) assay, antigen spotted on plate, 10 nM Fab; blank spot 302
[11] = target: T2, rHuman Notch-1/Fc Chimera, CF (R&D …); assay: as above
[12] = target: T3, rHuman IGF-1 sR, CF (R&D Systems …); assay: as above
[13] = target: T4, rHuman EGF R/Fc Chimera, CF (R&D …); assay: as above
[14] = target: T5, Recombinant Human DLL4 (R&D Systems …); assay: as above
[15] = target: T6, rHuman P-Cadherin/Fc Chimera, CF (R&D …); assay: as above
[16] = target: T7, rHuman CD44/Fc Chimera, CF (R&D Systems …); assay: as above
[17] = target: T8, rHuman HGF R/c-MET/Fc Chimera, CF (R&D …); assay: as above
[18] = target: T9, rHuman Erythropoietin R/Fc Chimera, CF …; assay: as above
[19] = target: T1, rHuman ErbB2/Fc Chimera, CF (R&D …); assay: ECL Multispot (MSD) assay, antigen spotted on plate, 10 nM Fab; blank spot 271
[20] = target: T2, rHuman Notch-1/Fc Chimera, CF (R&D …); assay: as above
[21] = target: T3, rHuman IGF-1 sR, CF (R&D Systems …); assay: as above
[22] = target: T4, rHuman EGF R/Fc Chimera, CF (R&D …); assay: as above
[23] = target: T5, Recombinant Human DLL4 (R&D Systems …); assay: as above
[24] = target: T6, rHuman P-Cadherin/Fc Chimera, CF (R&D …); assay: as above
[25] = target: T7, rHuman CD44/Fc Chimera, CF (R&D Systems …); assay: as above
[26] = target: T8, rHuman HGF R/c-MET/Fc Chimera, CF (R&D …); assay: as above
[27] = target: T9, rHuman Erythropoietin R/Fc Chimera, CF …; assay: as above
[28] = target: T1, rHuman ErbB2/Fc Chimera, CF (R&D …); assay: ECL Multispot (MSD) assay, antigen spotted on plate, 10 nM Fab; blank spot 296
[29] = target: T2, rHuman Notch-1/Fc Chimera, CF (R&D …); assay: as above
[30] = target: T3, rHuman IGF-1 sR, CF (R&D Systems …); assay: as above
[31] = target: T4, rHuman EGF R/Fc Chimera, CF (R&D …); assay: as above
[32] = target: T5, Recombinant Human DLL4 (R&D Systems …); assay: as above
[33] = target: T6, rHuman P-Cadherin/Fc Chimera, CF (R&D …); assay: as above
[34] = target: T7, rHuman CD44/Fc Chimera, CF (R&D Systems …); assay: as above
[35] = target: T8, rHuman HGF R/c-MET/Fc Chimera, CF (R&D …); assay: as above
[36] = target: T9, rHuman Erythropoietin R/Fc Chimera, CF …; assay: as above

T8 sequence (P08581 25-932, change not shown): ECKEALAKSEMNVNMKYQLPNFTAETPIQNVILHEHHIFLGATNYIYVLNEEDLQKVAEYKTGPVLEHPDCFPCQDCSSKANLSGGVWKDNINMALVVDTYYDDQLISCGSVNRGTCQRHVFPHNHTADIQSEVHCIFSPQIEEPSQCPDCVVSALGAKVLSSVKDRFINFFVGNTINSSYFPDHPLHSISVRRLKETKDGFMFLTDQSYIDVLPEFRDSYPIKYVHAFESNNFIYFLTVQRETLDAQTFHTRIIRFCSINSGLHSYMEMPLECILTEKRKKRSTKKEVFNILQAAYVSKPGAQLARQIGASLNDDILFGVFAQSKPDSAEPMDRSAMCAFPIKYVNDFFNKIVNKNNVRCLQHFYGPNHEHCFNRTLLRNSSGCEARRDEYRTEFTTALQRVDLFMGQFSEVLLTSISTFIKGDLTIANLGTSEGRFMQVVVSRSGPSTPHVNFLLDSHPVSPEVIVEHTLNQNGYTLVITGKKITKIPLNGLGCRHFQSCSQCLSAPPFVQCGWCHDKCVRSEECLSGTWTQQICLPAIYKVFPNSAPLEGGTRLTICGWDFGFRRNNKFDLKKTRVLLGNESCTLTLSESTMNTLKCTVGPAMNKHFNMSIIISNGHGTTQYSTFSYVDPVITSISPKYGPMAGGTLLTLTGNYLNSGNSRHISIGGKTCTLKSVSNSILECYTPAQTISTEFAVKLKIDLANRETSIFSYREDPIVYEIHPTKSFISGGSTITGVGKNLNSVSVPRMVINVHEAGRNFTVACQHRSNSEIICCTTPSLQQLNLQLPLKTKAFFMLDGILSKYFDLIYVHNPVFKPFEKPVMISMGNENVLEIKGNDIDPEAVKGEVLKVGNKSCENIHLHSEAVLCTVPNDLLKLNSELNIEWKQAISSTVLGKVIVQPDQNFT

- ECL signal [1]: 299
- ECL signal [2]: 473
- ECL signal [3]: 395
- ECL signal [4]: 435
- ECL signal [5]: 131000
- ECL signal [6]: 434
- ECL signal [7]: 457
- ECL signal [8]: 419
- ECL signal [9]: 429
B1: Fab VH1-46_IGHD6-6*01_IGHJ1*01 S102A/S103P/S104F/H111F S84G & L6_IGKJ1*01 (Fab, V domains shown)
VH: QVQLVQSGAEVKKPGASVKVSCKASGYTFTSYYMHWVRQAPGQGLEWMGIINPSGGSTSYAQKFQGRVTMTRDTSTSTVYMELGSLRSEDTAVYYCAREEYAPFSAEYFQFWGQGTLVTVSS
VL: not shown
notes: Fab expressed in E. coli: VH joined to CH1 from Plasmid A (with His6 and Flag tags), VL joined to kappa CL from Plasmid C; also called APFF S84G

- ECL signal [10]: 301
- ECL signal [11]: 331
- ECL signal [12]: 353
- ECL signal [13]: 306
- ECL signal [14]: 138000
- ECL signal [15]: 319
- ECL signal [16]: 382
- ECL signal [17]: 374
- ECL signal [18]: 318
B2: Fab VH1-46_IGHD6-6*01_IGHJ1*01 S102A/S103P/S104F/H111F S84H & L6_IGKJ1*01 (Fab, V domains shown)
VH: QVQLVQSGAEVKKPGASVKVSCKASGYTFTSYYMHWVRQAPGQGLEWMGIINPSGGSTSYAQKFQGRVTMTRDTSTSTVYMELHSLRSEDTAVYYCAREEYAPFSAEYFQFWGQGTLVTVSS
VL: not shown
notes: Fab expressed in E. coli: VH joined to CH1 from Plasmid A (with His6 and Flag tags), VL joined to kappa CL from Plasmid C; also called APFF S84H

- ECL signal [19]: 307
- ECL signal [20]: 309
- ECL signal [21]: 324
- ECL signal [22]: 337
- ECL signal [23]: 135000
- ECL signal [24]: 167
- ECL signal [25]: 251
- ECL signal [26]: 375
- ECL signal [27]: 415
B3: Fab VH1-46_IGHD6-6*01_IGHJ1*01 S102A/S103P/S104F/H111F S84N & L6_IGKJ1*01 (Fab, V domains shown)
VH: QVQLVQSGAEVKKPGASVKVSCKASGYTFTSYYMHWVRQAPGQGLEWMGIINPSGGSTSYAQKFQGRVTMTRDTSTSTVYMELNSLRSEDTAVYYCAREEYAPFSAEYFQFWGQGTLVTVSS
VL: not shown
notes: Fab expressed in E. coli: VH joined to CH1 from Plasmid A (with His6 and Flag tags), VL joined to kappa CL from Plasmid C; also called APFF S84N

- ECL signal [28]: 311
- ECL signal [29]: 416
- ECL signal [30]: 373
- ECL signal [31]: 347
- ECL signal [32]: 122000
- ECL signal [33]: 357
- ECL signal [34]: 372
- ECL signal [35]: 255
- ECL signal [36]: 288
B4: Fab VH1-46_IGHD6-6*01_IGHJ1*01 S102A/S103P/S104F/H111F S84Q & L6_IGKJ1*01 (Fab, V domains shown)
VH: QVQLVQSGAEVKKPGASVKVSCKASGYTFTSYYMHWVRQAPGQGLEWMGIINPSGGSTSYAQKFQGRVTMTRDTSTSTVYMELQSLRSEDTAVYYCAREEYAPFSAEYFQFWGQGTLVTVSS
VL: not shown
notes: Fab expressed in E. coli: VH joined to CH1 from Plasmid A (with His6 and Flag tags), VL joined to kappa CL from Plasmid C; also called APFF S84Q
